According to the supplement of paper PMC9170038:

System: K4 kissing-loop RNA reporter
Assay: apparent KD of K4 kissing-loop reporter; higher = weaker reporter binding
Conditions: Eterna round: R107
Procedure: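 RNA-MaP round R107: designed RNA switches with theophylline, tryptophan, arginine or FMN aptamers are transcribed on-chip within common flanks. They are titrated with a labelled K4 kissing-loop RNA reporter in RNA-MaP buffer (100 mM Tris pH 7.5, 80 mM KCl, 4 mM MgCl2), without ligand or with the indicated ligand. Median apparent KD per design.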

[1] = input ligand: theophylline 20 uM
[2] = input ligand: tryptophan 2.4 mM
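Further: bound reporter read as fluorescence of individual clusters on recovered sequencing chips by microscopy, with normalized cluster intensities fitted with a binding model.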

Row | Sequence | apparent KD of K4 kissing-loop reporter (input ligand: FMN 200 uM) | apparent KD of K4 kissing-loop reporter (input ligand: arginine 13.2 mM) | apparent KD of K4 kissing-loop reporter (input ligand: none) | apparent KD of K4 kissing-loop reporter [1] | apparent KD of K4 kissing-loop reporter [2]
1 | GCGCGCGGCGGAGGAUAUAGCAGGUGAUCCAAGAAAGUGAGUGAUGUUUAUGGAGAUGAUGAUAUGUUAGAAGGCCGCCGCGCGC [abcdefghijklmnopqrstu] | 803 nM | 448 nM | 626 nM | 847 nM | 474 nM
2 | AAACAUUGGUCGGAUACCAGUUAGACCGAUAGGUCAAAACUGGAGUGAUGUUCCUAAAAUAACCCUUGGCAGCCGACCGAUGAAA [MAT - Same State Theophlline B - Mod of Eli - D5] | 954 nM | 599 nM | 787 nM | 905 nM | 808 nM
3 | ACUAUCCGUAUAUAUAAGAUAGCUGGAGAUACCAGUUCAAUCUUGAACCCUUGGCAGCUCACCACCAAGUGAUGUUUGGCACGAC [theeternabot_sameState_KL_Theo_A_42] | 326 nM | 241 nM | 326 nM | 292 nM | 273 nM
4 | AAAAUAAAUAGCAGUCACGGAGUGAUGUUCCGAGGACCGGUACGGCCGCCACUCGACCAGACAAAGUCUGGAGGCGGAGACUGCA [#SwitchBubble 20 #K4Early] | 166 nM | 176 nM | 193 nM | 187 nM | 162 nM
5 | AAACGUUGGUGCGAUACCAGCUGAUCGGAAACGAUCUUGCUGGAGUGAUGUUCCAGGAAAAGCCCUUGGCAGCGCACCGACGAAA [MAT - Same State Theophlline B - Mod of Eli - D26] | 950 nM | 659 nM | 1060 nM | 869 nM | 928 nM
6 | ACGUGCACCAGUGAUGUUGGAAAAUAUGAAGGAGCGGGAGAAAACCCAGGUAGGUCGCAUAAUUGCACGAGCCACGAAAGUGGCA [#15 K4 Arginine A Same State] | 73.4 nM | 93.7 nM | 88.3 nM | 145 nM | 70.8 nM
7 | AGUAAUGUCACGGCCGCCACUCUUUAUUGUUUUUAUAGUUAUAAAUCUUGCCAGUGAUGUUGGUAGAGGACCGGGUGACUUAAUA [#26 K4 Tryptophan B Same State] | 222 nM | 208 nM | 245 nM | 199 nM | 194 nM
8 | GGAUAGGACAGAGGAUAUGGACAGUCUACAAAGUAGGCUGAAAAUCCUUGAAUGGAAGUGAUGUUUCUAGAAGGCUGUCCUAUCG [FmnBX 19 - #SwitchBubble #StaticStem #Palindromic] | 800 nM | 160 nM | 190 nM | 174 nM | 180 nM
9 | UGACUGGAUGGAAGGAGCGCUAAACUCCUAGUGAUGUUAGGGACACGAGACAAAGUCUUGAAGCAGGUAGGUCGCCAUCUAGUCU [FiskerMod 9 - Jieux - Same State - Arginine B] | 217 nM | 187 nM | 229 nM | 228 nM | 238 nM
10 | UGUGAACAAAAGUAGAGUGGACCACUAUAGCGAGGACCGGUACGGCCGCCACUCGUGCAUGAAUUCAGUGAUGUUGAAAAGAGCU [whbob_EX_Tryp_A_t12] | 258 nM | 375 nM | 330 nM | 364 nM | 185 nM
11 | UAAGAUUCUGUCUCAUUGAGACAGAAUCAACGAGGACCGGUACGGCCGCCACUCGGGUCCUAGAGUGAUGUUCUAAUAAUAUAAU [AK1 SS Tryptophan A] | 283 nM | 350 nM | 296 nM | 369 nM | 176 nM
12 | UGACUACAAAAGGAAUAAUCCUAGUGAUGUUAGGAUAUGCUGAUAAGCAGAAGGAACUGAGAUCGAAAGAUCUCAAAUGUAGUCU [FmnAX 25 Mat Inspired #SwitchBubble #StaticStem #K4Early] | 116 nM | 89.1 nM | 92.3 nM | 103 nM | 93 nM
13 | CGACGGAGUGAUGUUUCGUGGUAUGCUGAUACCAGAUGAAACAGCGUCCCUUGGCAGCAGCAUACGCCAAGGAUAAUAUCCUAGU [Theo B SS t6] | 1200 nM | 611 nM | 1770 nM | 531 nM | 604 nM
14 | GGACCUCAGUGAUGUUGAGGUAACGCUGAUACCAGUGACUUAAUUCGCCCUUGGCAGCAGUCCACCGAGGUAUCUGAUUAGGUCU [Default title] | 133 nM | 145 nM | 149 nM | 155 nM | 139 nM
15 | GUGCAGUGAUGUUGCACGAGGAAAGACGAUACCAGCCGUAAAUAAGGCCCUUGGCAGCGUAGGCUAGCAUAAAGCAUGCUAGUCC [Edeson] | 131 nM | 98.8 nM | 111 nM | 98.4 nM | 78 nM
16 | AAGCAGUCACUCGACGCCAUCGAAGAUGGGCGAGGACCGGUACGGCCGCCACUCGGAGUGAUGUUCUGAUGACUGCAAAAUAAAA [MatMod 8 - Jieux - Exclusion - Tryptophan A] | 119 nM | 52.7 nM | 118 nM | 156 nM | 94.3 nM
17 | CACUCGGUAUCAGAUACCAGACUAUCGAUACCGAGUGUAUCGGGUAGUGAUGUUACCAUAGUCCCUUGGCAGCUGAUAUUGCAUA [Theo B SS t9b] | 73.3 nM | 94.1 nM | 71.7 nM | 87.7 nM | 59.2 nM
18 | AUAGGCUAGCGAAACGCUAGCCUAACAGAUACCAGUCGCGAAAGCGACCCUUGGCAGCUGCUGAGUGAUGUUCAGGUGAAUGAAU | 442 nM | 285 nM | 418 nM | 403 nM | 374 nM
19 | AAAAUAAAUCAGUGAUGUUGGUAUCUGGAUACCAGCGAUAAUCAUCGCCCUUGGCAGCCAUGGACGUACAAAAUAAGUACGUCCU [MatMod 17 - Jieux - Same State - Theophylline A] | 242 nM | 157 nM | 180 nM | 228 nM | 193 nM
20 | GCGCGUCAUGUCAGCGGUGACUAUGUCGAUACCAGCGCCGCAAGGCGCCCUUGGCAGCGACGCGCUGGAGUGAUGUUCCGACGGC [#2 Exclusion - Theophylline A Attempt #9 (HarryS)] | 144 nM | 153 nM | 148 nM | 159 nM | 129 nM
21 | UGGGUGUAGUGAUGUUAUAUAGAGAGUGAUACCAGUUUAGAGAGGAACCCUUGGCAGCAUAGAAGAGUAUCAUUGGAGGAGGAGG [ExTheophyl.Aw] | 677 nM | 505 nM | 696 nM | 606 nM | 433 nM
